# Test: soluble on expression in E. coli; label from the status in PepcDB or PDB records
row,Sequence,soluble on expression in E. coli
1,MLTMKFLVPVDFSEITNPLLRTVKRVGEKVDCEVHLLHVIPPVLYLPYPETMGVSVIDIELLEKLEDEKKAEAKEKLKALEEFLKPVKARSHVDVGDPADVILDYEEKLNPDMVFLGGHKKGLIEKLLIGSTTEKVVKHGKKSDFVIKGSEVEFRKKVVIAYDFSKTAQKTAEFALKFLKNFKVSVEIVHVHESIEMPLIEKLKHKIEKEFSEEKKKILNELKGRFEEEGIKTEVKFLEGEDAVDVISSYVNETPEVELLIIGSKGLSGLKKLILGRTATKLLGKVNKPILIYKVQE,soluble
2,MLTSRALRIPRKPFVDLDYARHMPSAYVERTKRTVPRKVFGDRFGAPDIKMYYVHPDDYVPSHRRPWEDKQISSHLHRSDKYFSAQLSNQYFNLRRPKSERMADTEWTFFPGDLVQVMVGKDKGRQGLVLTTSRDSSDVIVDGLHTKLGEDMEGSEKLGVDKTLRWQEQPLSVSKKQVMLVDPNDEQPCEARWQLNGPGDEYIRVSTRSGYEIPIPSQAKVTYEYLQPENYIEVEGKDTPADAVLERTYMPKVASFEQEIMEEMGIKEERTPKPTFWY,not soluble
3,MLVAPFASQLPFVEETLHSSYQALQWGKNIFAIAHKTLSARLLNTVFPTEERTQPLSPELQAWLKERYEALLQQDWQDAAAGFYPATLLFDAPWEEFLRFYPLLLLDLPQMWQRARSRQFQEFAHNVRLEDYPQYYRQNFHYQTDGYLSDTSANLYDIQVELLFGGTADAMRRRVIAPIAQQVVAHPPTPPLRILDVACGTGRTLKQLRYAFPGAVLFGLDLSPAYLRKANALLATQTGALPQLIQGNAESLPYVDSYFSAITCVFLFHELPAPVRQNVIHECARVLQPGGIFVICDSIQSLDSPEQRPMMENFANLFHEPFYRNYIEDDLNLRLEKAGLVVKEVQHHFMSKYWVAVKPSLEHHHHHH,not soluble
4,MLVDSFNRVIDYIRVSVTKQCNFRCQYCMPATPLNFFDNEELLPLDNVLEFLKIAIDEGVKKIRITGGEPLLRKGLDEFIAKLHAYNKEVELVLSTNGFLLKKMAKDLKNAGLAQVNVSLDSLKSDRVLKISQKDALKNTLEGIEESLKVGLKLKLNTVVIKSVNDDEILELLEYAKNRHIQIRYIEFMENTHAKSLVKGLKEREILDLIAQKYQIIEAEKPKQGSSKIYTLENGYQFGIIAPHSDDFCQSCNRIRLASDGKICPCLYYQDAIDAKEAIINKDTKNIKRLLKQSVINKPEKNMWNDKNSETPTRAFYYTGGLEHHHHHH,not soluble
5,MLVSEMHGEVEAVKVGTEVQGRVLHWVYLYYYRNLLFDAGCPNTAQEVFEHFKGREIKAVLITHYHEDHIGAVNLFKEITDVYVPEESLEILRNPPDIPKYRKIGWGQPEKIEGVKVAKEVMKFDDVEVRMIKTPGHSFDHVSYLVDDKLFCGDLVINTAQMVCMREENLLKTIESIEKVLKYDFNYAYTGVGVASRDEVVEYLNYLKGLKEKAEMLYAEGKTIDEIVAACFPNPSQKAILMEFVSEKEWARENMVKSLLGLPRE,not soluble
6,MLWRKRLFAHLYPGLSARHEALVAERKRALFREALRRARPERVLEIGPGPGTNLAHLPEGVAYLALEPNPFFHPRLREEARKRGLALTLLPGRAEAIPLPGGSVDLVVATLVLCSVADPEKAIEEVHRVLRPGGAYLFLEHVAAPKGAPLRLLQEAATPFFVFFGDGCHPNRKTLAQIQARFPRVEAEAFSLPLPVVAPHVAGLAFKELEHHHHHH,not soluble
7,MMAIQASDMDISRFGSEIFRNSPRQSDLMIVSGTVTKKMAPRVRRIYDEMPYPKYVIAQGVCVIQGGPYNQGYSVVLGVDKVVPVDVYVPGCPPTPEALTNGIILLQKKIRGEADRLEHHHHHH,not soluble
8,MMALDDTVTIKPIRAEHVESFHRALDAVSRERKYLSFLEAPPLEAVRAFVLDMIENDHPQFVAIADGDVIGWCDIRRQDRATRAHCGTLGMGILPAYRNKGLGARLMRRTLDAAHEFGLHRIELSVHADNARAIALYEKIGFAHEGRARDAVSIDGHYIDSLNMAIIFGN,soluble
9,MMDEKLNFSYLFGSNAPYIEELYEAFLENPDAVDEKWKQYFTDLSKQPGTVAVDVAHTPIRESFVTLAKKKIASAVAGGADEAMLKKQVSVLRLISAYRIQGVGAAQLDPLKRIPPRDIEALDPKFHGLSDADMALQFNMGEGDFANRGKLPLSQIISNLKQTYCGHIALEYIYIPNTEERRWVRNYFESVLSTPHYNADQKRRILKEMTAAETLERYLHTKYVGQKRFGVEGGESAIAGLNYLIQNAGKDGVEEVIIGMAHRGRLNVLVNILGKKPGDLFAEFEGRAEIKLPSGDVKYHMGFSSDIATPHGPMHVSLAFNPSHLEIVNPVVEGSARAKQKRLGENGRDKVLPVLIHGDSAFIGLGVNQATFNLSKTRGYTTGGTVHIVINNQIGFTTSDIRDTRSTVHCTDIAKMVSAPVIHVNGDDPERVCFAIQAALDYRKKFHKDIVIDVVCYRKWGHNEGDDPTLTQPMMYKKVSQHPGARALYTEQLIAEGVVTQAEADGYIQAYRDALDKGEHVEQTTLSNFQRTQIDWSKYQGKDWREHIETGLPAADIERLTEKFTAVPEGFALHPTAKRVIEARKAMASGKQAIDWGMAETLAYASLVTKGHGVRISGEDSGRGTFSHRHAVLHDQKREKWDDGTYVPLRHMGEGMGEFLVIDSILNEEAVMAFEYGFACSAPDKLTIWEAQFGDFANGAQVTIDQFLSSGETKWGRLCGLTTILPHGYDGQGPEHSSARVERWLQLCSENNMQVIMPSEASQMFHLLQRQVLGSYRKPLVIFMSKRLLRFKGAMSPLENFTEGSTFRPVIGDTAERASNDSVKRVVLCAGQVYYDLEAGRAERKLEDDVAIVRVEQLYPFPYDEVKAELAKYPNAKSVVWAQEEPKNQGAFYQIRHRIEDVISEEQKLSYAGRPSSASPAVGYSSKHIAQLKQLVEDALAL,not soluble
10,MMDVSGVGFPSKVPWKKMSAEELENQYCPSRWVVRLGAEEALRTYSQIGIEATTRARATRKSLLHVPYGDGEGEKVDIYFPDESSEALPFFLFFHGGYWQSGSKDESAFMVHPLTAQGVAVVIVAYGIAPKGTLDHMVDQVTRSVAFVQKRYPSNKGIYLCGHSAGAHLAAMMLLADWTKHGVTPNLRGFFLVSGVFDLEPIVYTSQNVALQLTLEDAQRNNPQLKVAQAQPVDPTCRVLVVVGQFDSPEFHRQSWEFYQVLPVQTLCQGEWKASFEELHDVDHFEIVENLTQKDNVLTQIILKTIFQ,soluble
11,MMFVKNNFNTNNFDAELVEAIGNRLENNQFSDAILAGTKYLTTLLREKGQCEGDGAQLVGTVLGGQSPRIQINSLQSVSEQDEQRGFEALLRGYYQCIRNPRTHDNFPDTEDSCMRILIMLDTFIKYLKRDVAEFDYTAILERIYEVHFVNNSDYAEALISQIPEKKLLDFFQSLISRFNERPTKEIDSIFKAINQRFSGEEEKAAMRLLGDELRKASNNVEFANVFRIIKPSAWRNLPDDVLIRMENIIIEECKKGYLDFYSDATKGAIGTWGNTFGSKFKRRGDLGDALIGLLYDSWYTQNYVAKYYVFSIPSIITDDVKVKELADALAYATIVNGAKLLRTKLIDACKNYPDKLKEHLRDAVQQRMDSDKKYAEELLGQIS,not soluble
12,MMGMAVSTKLSIDEVNMLEKEDFVTKIGPIFEHSPWVAERAWAHRPFTSAENMYECMLEKVYEADKRLQLALLRAHPDLGTRLEISETSQSEQQRAGLSQLTEEEFAVFAELNKCYVDTFRFPFIMAVRGQTKNSIKEQMRKRLVNDEEQERKTALREVAKIAKFRLADLVVMGSRSLEHHHHHH,soluble
13,MMIAAAIFTTCVDGNKFFYHREIKVLRHLKRFNKPALKSIKSEDGDVIDCVPITNQPAFDHHLLKNHTIQMRPSFYPVSDSTYTKREAKAVTQVWHKAGECPKNTVPIRRTKKEDLLRPKSIRSFGRKSHQSIPRTTTFDPTLGHQYALMGVRNGKFYGTEVAINLWKPYVQIPKEFSLAQTWVVSGNGSSLNTIEAGWQVYPELYDDNNPRFFVYWTRDGYRKTGCYNLLCSGFVQTSNRYTVGGSITTMSRYRGTQYDLSVLIWKDQKTGNWWLRVNEKDVIGYWPGSLFNSLGREATRVEWGGEIINSKTGGRHTTTDMGSGHFADEGFKKASYFRNLKIVDGTNTLREPQGLYFFADKHNCYNVKTGNGGTSWGAHFFYGGPGRNVKCP,soluble
14,MMKEVLDAFRKSGEAEGFGHNKMSSSEVASHYNKVLQVGIEGRKESRIFFMRNMNNWVKSQLINDAKQRVNDNGVNNPRVLDLACGKGGDLKKWDIAGAKDVVMADVADVSIQQAEERYKQMFGYKKNNIFTVQFIVADCTKENLEDRIENKDPFDLVSCQFALHYSFVDEASARIFLKNAVGMLKPGGVFIGTLPDADRIVWSMRNGENGQFANEVCKITYENVEELAEGKVPLFGAKFHFSLDEQVNCPEFLAYFPLVKHLLEELDMELLFVHNFAEAINKWLEPGRRLLESMTGLETYPNEKLSGKSDDEYLEAKAKLDAFPEDERIKTMGTLSKSEWEAICMYLVFGFRKKKSEAEKTEEEPATTKPVAESESEQKEVTESEEKEDQEDCEHQEAQTN,soluble
15,MMKMIIAIVQDQDSQELADQLVKNNFRATKLATTGGFLRAGNTTFLCGVNDDRVDEILSVINQTCGNREQLVSPITPMGGSADSYIPYPVEVEVGGATVFVMPVDAFHQFLEHHHHHH,soluble
16,MMKQGMANSISMTWQLLCDEHGFTREHYNQLKKFSPETLREIIAEIASCHPSTSVLLRNKWLTPPEDILEQITREYERRIQNCPPFRSEKEAESWLNELSFAVIAPLYRVAPEQTEQVESFVLQLIAEQERVWELILTNDGYSWHCALYDILFHLVLRNMEDQPEHQKQRITKIFYEPDARLVAEEIKFRIQSLYDDEQKRALSELVNDFTSKE,soluble
17,MMKRARIIYNPTSGRELFKKSLPEVLQKLEQAGYEASCHATTGPGDATVAARQAADRKFDVVIAAGGDGTLNEVVNGLVGHEHRPKFGIIPVGTTNDFARAIGVPRSIEEAADIICEGKTVPLDLGRANDTYFINIAGGGRITELTYEVPSKLKTVLGQLAYYLKGIEMLPSLHPTYVEIEYDGKLLQEEITMFLITNTRSVGGFEKVAPYASINDGLFDLLVLKKGSIADLIKAATQAQRGEHINNPKVLYTQANRIKVHSPDKLMINLDGEYGGDAPMEFENIYHCLELFVPEHQEDAL,not soluble
18,MMLNAWHLPVPPFVKQSKDQLLITLWLTGEDPPQRIMLRTEHDNEEMSVPMHKQRSQPQPGVTAWRAAIDLSSGQPRRRYSFKLLWHDRQRWFTPQGFSRMPPARLEQFAVDVPDIGPQWAADQIFYQIFPDRFARSLPREAEQDHVYYHHAAGQEIILRDWDEPVTAQAGGSTFYGGDLDGISEKLPYLKKLGVTALYLNPVFKAPSVHKYDTEDYRHVDPQFGGDGALLRLRHNTQQLGMRLVLDGVFNHSGDSHAWFDRHNRGTGGACHNPESPWRDWYSFSDDGTALDWLGYASLPKLDYQSESLVNEIYRGEDSIVRHWLKAPWNMDGWRLDVVHMLGEAGGARNNMQHVAGITEAAKETQPEAYIVGEHFGDARQWLQADVEDAAMNYRGFTFPLWGFLANTDISYDPQQIDAQTCMAWMDNYRAGLSHQQQLRMFNQLDSHDTARFKTLLGRDIARLPLAVVWLFTWPGVPCIYYGDEVGLDGKNDPFCRKPFPWQVEKQDTALFALYQRMIALRKKSQALRHGGCQVLYAEDNVVVFVRVLNQQRVLVAINRGEACEVVLPASPFLNAVQWQCKEGHGQLTDGILALPAISATVWMN,soluble
19,MMLSATQPLSEKLPAHGCRHVAIIMDGNGRWAKKQGKIRAFGHKAGAKSVRRAVSFAANNGIEALTLYAFSSENWNRPAQEVSALMELFVWALDSEVKSLHRHNVRLRIIGDTSRFNSRLQERIRKSEALTAGNTGLTLNIAANYGGRWDIVQGVRQLAEKVQQGNLQPDQIDEEMLNQHVCMHELAPVDLVIRTGGEHRISNFLLWQIAYAELYFTDVLWPDFDEQDFEGALNAFANRERRFGGTEPGDETA,soluble
